Laboratory results published in article PMC4333373.

Tests used:
[1] = molecular target: T1, ParB (Spo0J) (Bacillus subtilis 168) (UniProt P26497); assay: EMSA; details: 50 mM Hepes-KOH pH 7.5, 100 mM KCl, 2.5 mM MgCl2, 0.1 mg/ml BSA, 1 mM DTT, 20 nM DNA, EMSA also 2.5% Ficoll, room temperature 30 min then ice 5 min, gel at 4 C
T1 sequence: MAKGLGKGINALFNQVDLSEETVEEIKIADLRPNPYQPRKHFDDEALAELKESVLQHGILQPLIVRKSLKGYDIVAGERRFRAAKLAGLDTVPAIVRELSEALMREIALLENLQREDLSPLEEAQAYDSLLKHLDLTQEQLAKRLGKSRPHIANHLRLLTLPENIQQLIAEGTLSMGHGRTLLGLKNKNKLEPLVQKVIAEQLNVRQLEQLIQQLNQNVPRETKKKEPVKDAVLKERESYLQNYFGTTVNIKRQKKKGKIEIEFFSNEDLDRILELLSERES

[2] = molecular target: T1, ParB (Spo0J) (Bacillus subtilis 168); assay: fluorescence intensity (Cy3); details: 50 mM Hepes-KOH pH 7.5, 100 mM KCl, 2.5 mM MgCl2, 0.1 mg/ml BSA, 1 mM DTT, 20 nM DNA, EMSA also 2.5% Ficoll, room temperature 30 min then ice 5 min, gel at 4 C

147-bp parS
Kd ([1]; specific complex, TBM gel, 2.5 mM Mg2+): 100 nM

Cy3 147-bp non-specific (scrambled parS)
Kd ([2]; apparent Kd of ParB2, Hill h = 3.4 ± 0.4, 2.5 mM Mg2+): 275 nM

Cy3 147-bp parS
Kd [2]: 240 nM

GGTACAAAAAGTGATTGCGGAGCAGCTCAATGTTCGCCAACTTGAGCAGCTGATTCAGCAGTTGAATCAGAATGTTCCACGTGAAACAAAGAAAAAAGAACCTGTGAAAGATGCGGTTCTAAAAGAACGGGAATCCTATCTCCAAAA (double strand) [147-bp parS]
Kd [1]: 100 nM | binding [1]: binds

TTTTGGAGATAGGATTCCCGTTCTTTTAGAACCGCATCTTTCACAGGTTCTTTTTTCTTTGTCTCCCTGGGCACGTTCTGATTCAACTGCTGAATCAGCTGCTCAAGTTGGCGAACATTGAGCTGCTCCGCAATCACTTTTTGTACC (double strand) [147-bp non-specific (scrambled parS)]
binding [1]: binds

TTTTGGAGATAGGATTCCCGTTCTTTTAGAACCGCATCTTTCACAGGTTCTTTTTTCTTTGTCTCCCTGGGCACGTTCTGATTCAACTGCTGAATCAGCTGCTCAAGTTGGCGAACATTGAGCTGCTCCGCAATCACTTTTTGTACC (double strand) [Cy3 147-bp non-specific (scrambled parS)]
Kd [2]: 275 nM

TTTTGGAGATAGGATTCCCGTTCTTTTAGAACCGCATCTTTCACAGGTTCTTTTTTCTTTGTTTCACGTGGAACATTCTGATTCAACTGCTGAATCAGCTGCTCAAGTTGGCGAACATTGAGCTGCTCCGCAATCACTTTTTGTACC (double strand) [Cy3 147-bp parS]
Kd [2]: 240 nM
